Results taken from the supplement of paper PMC9170038.

How the values were obtained:
MS2 coat protein [1] = experiment: apparent KD of MS2 coat protein, switch OFF state (with FMN for OFF switches, without FMN for ON switches); designed switch direction (-1 OFF switch, 1 ON switch): -1; higher = weaker reporter binding; details: FMN input: 0 or 200 uM; Eterna round: R93 (includes R88 designs)
Summary of the method: (§1)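 Apparent KD is reported per design as the median of normalised binding-curve fits across its clusters. The RNA switches were made by on-chip transcription from Illumina sequencing clusters. SNAP-549-labelled MS2 coat protein was then added in twofold steps (0.7 or 1.5 nM to 3 µM; 0.8–1.5 h to 10–20 min per step) in 100 mM Tris-HCl pH 7.5, 80 mM KCl, 4 mM MgCl2, without or with constant ligand.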

MS2 coat protein [2] = experiment: apparent KD of MS2 coat protein, switch ON state; designed switch direction (-1 OFF switch, 1 ON switch): -1; higher = weaker reporter binding; details: FMN input: 0 or 200 uM; Eterna round: R93 (includes R88 designs)
Summary of the method: as §1

## AGCUAGUGAGGAUAUACGAACAUGUCAAAAGACUGUAAGGGACAUGAGGAUCACCCAUGUAGAAGGCACUAGCA [Diamond 55]
MS2 coat protein [1]
  apparent KD of MS2 coat protein: 294 nM
MS2 coat protein [2]
  apparent KD of MS2 coat protein: 55.7 nM

## AGCUGGUUAGGAUAUACAUGAGGAUCACCCAUGUUAAAAAAAAAAAAAAGAUUAAAGUGUAGAAGGGAUUAGUA [Banishment 9 - Jieux - Exclusion 3]
MS2 coat protein [1]
  apparent KD of MS2 coat protein: 34.4 nM
MS2 coat protein [2]
  apparent KD of MS2 coat protein: 29.3 nM

## AGGAAACAUGAGGAUCACCCAUGUUAGGAUAUGAACGAAAUAAAAUAAAAAUAAAAGUUCAGAAGGAACAAAAA [Mat - Exclusion 1 - Eli mod - D19]
MS2 coat protein [1]
  apparent KD of MS2 coat protein: 41.3 nM
MS2 coat protein [2]
  apparent KD of MS2 coat protein: 28.2 nM

## AGGAACCUAGGAUAUACAUGAGGAUCACCCAUGUCACGAGUCAAACACAGGUAUCCUAGUAGAAGGAGGAACAC [Inlaveor]
MS2 coat protein [1]
  apparent KD of MS2 coat protein: 42.1 nM
MS2 coat protein [2]
  apparent KD of MS2 coat protein: 22 nM

## AGGGAACAUGAGGAUCACCCAUGUGAGGAUAUAGAAAAGAAAAGAAAAGAAAGAAGAACUAGAAGGUACAAGAA [Merenre Nemtyemsaf I]
MS2 coat protein [1]
  apparent KD of MS2 coat protein: 30 nM
MS2 coat protein [2]
  apparent KD of MS2 coat protein: 26.1 nM

## AGGGAGUAAGGAUAUCGGAAAGGACACGAAAGUGACAAAGACGAGAAGGUACAUGAGGAUCACCCAUGUAAAAA [milkweed 24]
MS2 coat protein [1]
  apparent KD of MS2 coat protein: 21.6 nM
MS2 coat protein [2]
  apparent KD of MS2 coat protein: 32.2 nM

## AGGGAGUGAGGAUAUGCGAAAGAAAAAGAAAAAAAAAAAAAGCAGAAGGUACAUGAGGAUCACCCAUGUAAAAA [milkweed 6]
MS2 coat protein [1]
  apparent KD of MS2 coat protein: 29.1 nM
MS2 coat protein [2]
  apparent KD of MS2 coat protein: 29.8 nM

## AGGGUACAUGAGGAUCACCCAUGUUAGGAUAUAGAAAAGAAAAGAAAAGAAAGAAGAACUAGAAGGGACAAGAA [Unas]
MS2 coat protein [1]
  apparent KD of MS2 coat protein: 41.3 nM
MS2 coat protein [2]
  apparent KD of MS2 coat protein: 34.8 nM

## AGUCAGAGAGGAUAUACAUGAAAAAAAAAAGUAAGAUCCCUACAUGAGGAUCACCCAUGUAGAAGGCUCUGACA [Ex2 Design 137: Sub-opt 1]
MS2 coat protein [1]
  apparent KD of MS2 coat protein: 26.8 nM
MS2 coat protein [2]
  apparent KD of MS2 coat protein: 60.5 nM

## AGUCAUACAGGAUAUACAUGAGGAUCACCCAUGUAAAUCCUAAAAAGAAAAAAAUCAUGUAGAAGGGUAUGACA [EX3 224: Super Stable 24]
MS2 coat protein [1]
  apparent KD of MS2 coat protein: 17.2 nM
MS2 coat protein [2]
  apparent KD of MS2 coat protein: 13 nM

## AGUCUGAGAGGAUAUACAUAGGAAAAAAAAGUAAGAUCCCUACAUGAGGAUCACCCAUGUAGAAGGCUCUGACA [Ex2 Design 142: Sub-opt 6]
MS2 coat protein [1]
  apparent KD of MS2 coat protein: 67.7 nM
MS2 coat protein [2]
  apparent KD of MS2 coat protein: 46.9 nM

## AGUGAGUGAGGAUAUCCCUGAAGAAUAAAAGAAAUAACGAGGGAGAAGGCACAUGAGGAUCACCCAUGUACACA [May 64]
MS2 coat protein [1]
  apparent KD of MS2 coat protein: 24.8 nM
MS2 coat protein [2]
  apparent KD of MS2 coat protein: 30.6 nM

## AGUUGGCGAGGAUAUACAUGAGGAUCACCCAUGUGAGAGAUAAAAGUGAGAAAGAAAAGUAGAAGGCGCUCACA [JL Lego Mod 15]
MS2 coat protein [1]
  apparent KD of MS2 coat protein: 60.1 nM
MS2 coat protein [2]
  apparent KD of MS2 coat protein: 107 nM

## AGUUGGCGAGGAUAUACAUGAGGAUCACCCAUGUGAGAGUAAAAAGUGAGAAAGAAAAGUAGAAGGCGCUCACA [JL Lego Mod 14]
MS2 coat protein [1]
  apparent KD of MS2 coat protein: 46.3 nM
MS2 coat protein [2]
  apparent KD of MS2 coat protein: 77.5 nM

## AUAAAACAUGAGGAUCACCCAUGUGAGGAUAUGCGAAAUAAUGAAUAAAGAAAUAAAAGCAGAAGGCACAAAAA [LROPPY Exclusion 1 - v05_deltaG=1.64 break up some As mixed]
MS2 coat protein [1]
  apparent KD of MS2 coat protein: 28.9 nM
MS2 coat protein [2]
  apparent KD of MS2 coat protein: 32.8 nM

## AUAAAGACAGGAUAUACAUGAGGAUCACCCAUGUAAAAAAAAAAAUGAUCCUCAAAAAGUAGAAGGGUCAAUAA [JR_Exc003_Sub015]
MS2 coat protein [1]
  apparent KD of MS2 coat protein: 155 nM
MS2 coat protein [2]
  apparent KD of MS2 coat protein: 78.7 nM

## AUAGGCCUAGGAUAUACAUGAGGAUCACCCAUGUAAACCGAUAGAUCACGGUAAACGAGUAGAAGGAGGAAUAA [JR_Exc003_Sub208]
MS2 coat protein [1]
  apparent KD of MS2 coat protein: 30.3 nM
MS2 coat protein [2]
  apparent KD of MS2 coat protein: 26.5 nM

## AUGUACCUAGGAUAUACAUGAGGAUCACCCAUGUAUUGGGAGCAAUCAAGUUAAUAUUGUAGAAGGAGGUGAAA [JR_Exc003_Sub316]
MS2 coat protein [1]
  apparent KD of MS2 coat protein: 67.9 nM
MS2 coat protein [2]
  apparent KD of MS2 coat protein: 25.7 nM

## CAAAGGUGAGGAUAUACAAGGAUAUGACGAAAGUCAUAAAAACAUGAGGAUCACCCAUGUAGAAGGCACCACAA [E2 64% 4]
MS2 coat protein [1]
  apparent KD of MS2 coat protein: 43.7 nM
MS2 coat protein [2]
  apparent KD of MS2 coat protein: 33.9 nM

## CAAAGGUGAGGAUAUGCAUAACUAUGACGAAAGUCAUAAACACAUGAGGAUCACCCAUGUAGAAGGCGCCACAA [e2-3]
MS2 coat protein [1]
  apparent KD of MS2 coat protein: 57.2 nM
MS2 coat protein [2]
  apparent KD of MS2 coat protein: 78.8 nM

## CAGUACUGAGGAUAUACAUGAGGAUCACCCAUGUGUAAAAGCUAGGAAACUAGCACAUGUAGAAGGCAGUACUG [Ex3: 815]
MS2 coat protein [1]
  apparent KD of MS2 coat protein: 230 nM
MS2 coat protein [2]
  apparent KD of MS2 coat protein: 48.3 nM

## CAGUACUGAGGAUAUACAUGAGGAUCACCCAUGUGUUAAAGCUAGGAAACUAGCAAAUGUAGAAGGCAGUACUG [Ex3: 817]
MS2 coat protein [1]
  apparent KD of MS2 coat protein: 47.9 nM
MS2 coat protein [2]
  apparent KD of MS2 coat protein: 14 nM

## CAUUCACAUGAGGAUCACCCAUGUAAGGAUAUCGAAAUAUAACUAAUCAAUAAACAAACGAGAAGGUACAAAAA [Exclusion 1 design 10]
MS2 coat protein [1]
  apparent KD of MS2 coat protein: 23.8 nM
MS2 coat protein [2]
  apparent KD of MS2 coat protein: 33.7 nM

## CCUAUGUCAGGAUAUCAGUAGUAAAAAAAAAAAAUUACUACUGAGAAGGGACAUGAGGAUCACCCAUGUACCUU [EX4 310: Super Stable 10]
MS2 coat protein [1]
  apparent KD of MS2 coat protein: 17.8 nM
MS2 coat protein [2]
  apparent KD of MS2 coat protein: 25.5 nM

## CGUUGGCGAGGAUAUACAUGAGGAUCACCCAUGUGAGAGAAAAAAGUGAGAAAGAAAAGUAGAAGGCGCUGACA [salish99-ex3-11]
MS2 coat protein [1]
  apparent KD of MS2 coat protein: 264 nM
MS2 coat protein [2]
  apparent KD of MS2 coat protein: 45.3 nM

## CUCAAGUGAGGAUAUACAAAAAGUAAAUAAGUAAAACAAAAGUAGAAGGCACAUGAGGAUCACCCAUGUAAAUA [JR_Exc004_Sub301]
MS2 coat protein [1]
  apparent KD of MS2 coat protein: 63.1 nM
MS2 coat protein [2]
  apparent KD of MS2 coat protein: 45.5 nM

## CUCAAGUUAGGAUAUGUAAGAAAAGAAGAGAAAGAAAAGAAACAGAAGGAACAUGAGGAUCACCCAUGUAAGAA [EteRNA is fun!]
MS2 coat protein [1]
  apparent KD of MS2 coat protein: 24.1 nM
MS2 coat protein [2]
  apparent KD of MS2 coat protein: 22.1 nM

## CUCAUGUCAGGAUAUCAGUAGUAAAAAAAAAAAAUUACUACUGAGAAGGGACAUGAGGAUCACCCAUGUCCCAA [EX4 305: Super Stable 5]
MS2 coat protein [1]
  apparent KD of MS2 coat protein: 36.3 nM
MS2 coat protein [2]
  apparent KD of MS2 coat protein: 30.7 nM

## CUCAUGUGAGGAUAUGUACGAAAAAAUAAAAAAAUAAAAGUACAGAAGGCACAUGAGGAUCACCCAUGUGAAAA [EX4 398: Minimal 11]
MS2 coat protein [1]
  apparent KD of MS2 coat protein: 24.3 nM
MS2 coat protein [2]
  apparent KD of MS2 coat protein: 42.5 nM

## CUCAUGUUAGGAUAUUUAUGAAAUGAAGUGAAAGAAAAGAAAAAGAAGGAACAUGAGGAUCACCCAUGUUAGAA [EteRNA is fun!]
MS2 coat protein [1]
  apparent KD of MS2 coat protein: 35.4 nM
MS2 coat protein [2]
  apparent KD of MS2 coat protein: 65.2 nM

## CUCUAGUGAGGAUAUGGAAGAAAAGAAAAGAAAGAAAAGAACCAGAAGGCACAUGAGGAUCACCCAUGUAAGAA [EteRNA is fun!]
MS2 coat protein [1]
  apparent KD of MS2 coat protein: 66 nM
MS2 coat protein [2]
  apparent KD of MS2 coat protein: 47.7 nM

## CUCUUGUAAGGAUAUGACUACAUAAAAAAAAAAAAAUGUAGUCAGAAGGUACAUGAGGAUCACCCAUGUACAAA [Brourd - Exclusion 4 - Sub 1]
MS2 coat protein [1]
  apparent KD of MS2 coat protein: 36 nM
MS2 coat protein [2]
  apparent KD of MS2 coat protein: 24.5 nM

## CUCUUGUCAGGAUAUUCAAGAAAAGAAGAGAAAGAAAAGAAGAAGAAGGGACAUGAGGAUCACCCAUGUAAGAA [EteRNA is fun!]
MS2 coat protein [1]
  apparent KD of MS2 coat protein: 67.2 nM
MS2 coat protein [2]
  apparent KD of MS2 coat protein: 52.4 nM

## CUCUUGUGAGGAUAUAGAAGAAAAGAAAAGAAAGAAAAGAACUAGAAGGCACAUGAGGAUCACCCAUGUAAGAA [EteRNA is fun!]
MS2 coat protein [1]
  apparent KD of MS2 coat protein: 67.7 nM
MS2 coat protein [2]
  apparent KD of MS2 coat protein: 38.7 nM

## CUCUUGUGAGGAUAUCAAAGAAAAGAAGAGAAAGAAAAGAAUGAGAAGGCACAUGAGGAUCACCCAUGUAAGAA [EteRNA is fun!]
MS2 coat protein [1]
  apparent KD of MS2 coat protein: 59.5 nM
MS2 coat protein [2]
  apparent KD of MS2 coat protein: 28.9 nM

## CUGGUGUCAGGAUAUGCAUAGCAGUGACCAAAACCCGGUCAGCAGAAGGGACAUGAGGAUCACCCAUGUUAAAG [Alatele]
MS2 coat protein [1]
  apparent KD of MS2 coat protein: 57.7 nM
MS2 coat protein [2]
  apparent KD of MS2 coat protein: 22.3 nM

## CUUAAGUCAGGAUAUGUCAAAAGUCACAAAAGUGACAAAAGACAGAAGGGACAUGAGGAUCACCCAUGUAAAAA [Starry Exclusion 4.5 (starryjess round 1 mod)]
MS2 coat protein [1]
  apparent KD of MS2 coat protein: 139 nM
MS2 coat protein [2]
  apparent KD of MS2 coat protein: 78.3 nM

## CUUGUGUGAGGAUAUGUAAGAUGAAUAAGCAGUUCUAAAAGGCAGAAGGCACAUGAGGAUCACCCAUGUAAAAU [Sodirexe]
MS2 coat protein [1]
  apparent KD of MS2 coat protein: 16.1 nM
MS2 coat protein [2]
  apparent KD of MS2 coat protein: 61.3 nM

## GAAAAACAUGAGGAUCACCCAUGUCAGGAUAUGCAGAAAAAGAAAAAAAGAAAAGAAAGUAGAAGGGACAAAAG [Mat - Same state - Mayanna Mod - D106]
MS2 coat protein [1]
  apparent KD of MS2 coat protein: 28.6 nM
MS2 coat protein [2]
  apparent KD of MS2 coat protein: 29.4 nM

## GAAAACAUAGGAUAUACAUGAGGAUCACCCAUGUUAAAAUAAAGAAAGGGAGAAAUAAGUAGAAGGAUGAAAAA [Mat - Mod of Meechl]
MS2 coat protein [1]
  apparent KD of MS2 coat protein: 29.8 nM
MS2 coat protein [2]
  apparent KD of MS2 coat protein: 25.6 nM
